Where a chain is given by its changes, count along the chain named.
B1: hCD3.1 Fab (Fab, V domains shown)
VH: EVQLVESGGGLVQPGGSLRLSCAASGFTFSDYYMTWVRQAPGKGLEWVAFIRNRARGYTSDHNPSVKGRFTISRDNAKNSLYLQMNSLRAEDTAVYYCARDRPSYYVLDYWGQGTTVTVSS
VL: DIVMTQSPDSLAVSLGERATINCKSSQSLFNVRSRKNYLAWYQQKPGQPPKLLISWASTRESGVPDRFSGSGSGTDFTLTISSLQAEDVAVYYCKQSYDLFTFGSGTKLEIK
notes: VH of hCD3.1; CH1 of the Fab; VL of hCD3.1; CL of the Fab; Anti-human CD3 arm of a clinical T-cell engager; cloned in pTT5 with an N-terminal osteonectin signal peptide; source: Expi293, transient, purified (Ni Sepharose excel, Superdex 200)
B2: hCD3.4 Fab (Fab, V domains shown)
VH: QVQLVQSGAEVKKPGASVKVSCKASGFNIKDYYMHWVRQAPGQRLEWMGWIDLENGNTIYDPKFQGRVTITRDTSASTAYMELSSLRSEDTAVYYCARDGYGRYFYDVWGQGTLVTVSS
VL: B1 VL with F30L, V32S, S34T, R35G, S55Y, D99S, L100R, F101R, S105G, L109V
notes: VH of hCD3.4; CH1 of the Fab; VL of hCD3.4; CL of the Fab; Anti-human CD3 arm of a clinical T-cell engager; cloned in pTT5 with an N-terminal osteonectin signal peptide; source: Expi293, transient, purified (Ni Sepharose excel, Superdex 200)
B3: 2C11 Fab (Fab, V domains shown)
VH: EVQLVESGGGLVQPGKSLKLSCEASGFTFSGYGMHWVRQAPGRGLESVAYITSSSINIKYADAVKGRFTVSRDNAKNLLFLQMNILKSEDTAMYYCARFDWDKNYWGQGTMVTVSS
VL: DIQMTQSPSSLPASLGDRVTINCQASQDISNYLNWYQQKPGKAPKLLIYYTNKLADGVPSRFSGSGSGRDSSFTISSLESEDIGSYYCQQYYNYPWTFGPGTKLEIK
notes: VH of 2C11; CH1 of the Fab; VL of 2C11; CL of the Fab; Murine surrogate anti-CD3 clone; cloned in pTT5 with an N-terminal osteonectin signal peptide; also called m2C11; source: Expi293, transient, purified (Ni Sepharose excel, Superdex 200)
B4: SP34 Fab (Fab, V domains shown)
VH: EVQLVESGGGLVQPKGSLKLSCAASGFTFNTYAMNWVRQAPGKGLEWVARIRSKYNNYATYYADSVKDRFTISRDDSQSILYLQMNNLKTEDTAMYYCVRHGNFGNSYVSWFAYWGQGTLVTVSA
VL: QAVVTQESALTTSPGETVTLTCRSSTGAVTTSNYANWVQEKPDHLFTGLIGGTNKRAPGVPARFSGSLIGDKAALTITGAQTEDEAIYCALWYSNLWVFGGGTKLTVL
notes: VH of SP34; CH1 of the Fab; VL of SP34; CL of the Fab; Cyno cross-reactive anti-human CD3 clone; cloned in pTT5 with an N-terminal osteonectin signal peptide; source: Expi293, transient, purified (Ni Sepharose excel, Superdex 200)
B5: hCD3.5 Fab (Fab, V domains shown)
VH: not shown
VL: QAVVTQEPSLTVSPGGTVTLTCGSSTGAVTTSNYANWVQEKPGQAFRGLIGGTNKRAPGTPARFSGSLLGGKAALTLSGAQPEDEAEYYCALWYSNLWVFGGGTKLTVL
notes: VH of hCD3.5; CH1 of the Fab; VL of hCD3.5; CL of the Fab; Anti-human CD3 arm of a clinical T-cell engager; cloned in pTT5 with an N-terminal osteonectin signal peptide; source: Expi293, transient, purified (Ni Sepharose excel, Superdex 200)
B6: hCD3.2 Fab (Fab, V domains shown)
VH: EVQLVESGGGLVQPGGSLRLSCAASGFTFNTYAMNWVRQAPGKGLEWVARIRSKYNNYATYYAASVKGRFTISRDDSKNSLYLQMNSLKTEDTAVYYCARHGNFGNSYVSWFAYWGQGTLVTVSS
VL: B5 VL with A2T, G23R, E40Q, F46P, A80V
notes: VH of hCD3.2; CH1 of the Fab; VL of hCD3.2; CL of the Fab; Anti-human CD3 arm of a clinical T-cell engager; cloned in pTT5 with an N-terminal osteonectin signal peptide; source: Expi293, transient, purified (Ni Sepharose excel, Superdex 200)

These binders were tested against T1, Fc-tagged human CD3E/D heterodimer (Homo sapiens, UniProt P07766;P04234) (assay: SPR; Fc-tagged CD3E/D variants captured on a C1 chip by amine-coupled anti-human Fc or anti-murine Fc pAb; concentration series of Fab; HBS pH 7.4, 0.05% Tween-20, 1 g/L BSA, 37 °C; 1:1 Langmuir model with mass transport). Details: both partners purified.
T1 construct: CD3 epsilon, human; CD3 delta, human; also called hCD3E/D; source: Expi293, transiently co-expressed, purified (MabSelect Sure LX, Superdex 200)
T1 sequence (P07766 23-207, chain 1 of 2): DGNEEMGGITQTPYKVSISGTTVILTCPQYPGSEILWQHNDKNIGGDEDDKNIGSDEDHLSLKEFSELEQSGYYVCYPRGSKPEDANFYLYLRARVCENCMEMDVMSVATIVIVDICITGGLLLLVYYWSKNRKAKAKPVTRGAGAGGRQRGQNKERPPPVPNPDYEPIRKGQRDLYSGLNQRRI
T1 sequence (P04234 22-171, chain 2 of 2): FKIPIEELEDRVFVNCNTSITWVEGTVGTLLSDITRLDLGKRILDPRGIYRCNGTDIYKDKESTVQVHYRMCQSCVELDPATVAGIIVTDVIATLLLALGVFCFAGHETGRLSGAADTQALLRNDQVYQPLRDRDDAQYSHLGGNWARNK
With B1 the Kd was 6.3 ± 0.18 nM.
B2 showed a Kd of 2.7 ± 0.45 nM.
B3: no binding.
B4 was tested, and the Kd was 6.6 ± 0.46 nM.
Work on B5 yielded a Kd of 4.1 ± 0.44 nM.
With B6 the Kd was 3.1 ± 0.35 nM.

These binders were tested against T2, chimeric human/murine CD3E - murine CD3D Fc-tagged heterodimer (Mus musculus CD3E/D with human CD3E …, UniProt P07766;P22646;P04235, chimera) in the same assay as above. Details: both partners purified.
T2 construct: CD3 epsilon, mouse, with a 5-residue N-terminal stretch replaced by an 11-residue stretch of human CD3E; CD3 delta, mouse; also called Chimeric human/murine CD3E/D; h/mCD3E-mCD3D; source: Expi293, transiently co-expressed, purified (MabSelect Sure LX, Superdex 200)
T2 sequence (P22646 22-189, stated change not applied, chain 1 of 2): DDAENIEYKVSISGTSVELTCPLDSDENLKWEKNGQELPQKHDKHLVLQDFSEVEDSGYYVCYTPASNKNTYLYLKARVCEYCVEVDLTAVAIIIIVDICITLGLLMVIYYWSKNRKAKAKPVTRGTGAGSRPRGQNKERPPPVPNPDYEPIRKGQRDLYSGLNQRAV
T2 sequence (P04235 22-173, stated change not applied, chain 2 of 2): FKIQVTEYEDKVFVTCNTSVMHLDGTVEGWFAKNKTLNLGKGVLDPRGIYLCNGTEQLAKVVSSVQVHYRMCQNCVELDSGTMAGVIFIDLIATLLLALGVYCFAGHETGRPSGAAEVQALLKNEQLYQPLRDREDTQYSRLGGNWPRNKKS
In the case of B1, the Kd is reported as 8.6 ± 0.53 nM.
B2 gave a Kd of 3.1 ± 0.23 nM.
In the case of B3, the Kd is reported as 250 ± 16 nM.
In the case of B4, the Kd is reported as 7.3 ± 0.18 nM.
B5 gave a Kd of 4.4 ± 0.27 nM.
Work on B6 yielded a Kd of 4.2 ± 0.22 nM.

What follows are binders tested against T3, Fc-tagged murine CD3E/D heterodimer (Mus musculus, UniProt P22646;P04235) in the same assay as above. Details: both partners purified.
T3 construct: CD3 epsilon, mouse; CD3 delta, mouse; also called mCD3E/D; source: Expi293, transiently co-expressed, purified (MabSelect Sure LX, Superdex 200)
T3 sequence (P22646 22-189, chain 1 of 2): as the sequence (P22646 22-189, stated change not applied, chain 1 of 2) above
T3 sequence (P04235 22-173, chain 2 of 2): as the sequence (P04235 22-173, stated change not applied, chain 2 of 2) above
B1: no binding.
B2: no binding.
Work on B3 yielded a Kd of 22 ± 1.4 nM.
B4: no binding.
B5: no binding.
B6: no binding.

Each binder was assayed against T4, Fc-tagged cyno CD3E/D heterodimer (Macaca fascicularis, UniProt Q95LI5;Q95LI8) in the same assay as above. Details: both partners purified.
T4 construct: CD3 epsilon, cynomolgus monkey; CD3 delta, cynomolgus monkey; source: Expi293, transiently co-expressed, purified (MabSelect Sure LX, Superdex 200)
T4 sequence (Q95LI5 22-198, chain 1 of 2): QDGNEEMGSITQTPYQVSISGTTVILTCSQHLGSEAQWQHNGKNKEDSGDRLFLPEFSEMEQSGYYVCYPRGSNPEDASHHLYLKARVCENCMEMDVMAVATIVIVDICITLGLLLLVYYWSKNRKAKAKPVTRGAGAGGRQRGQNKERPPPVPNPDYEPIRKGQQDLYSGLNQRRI
T4 sequence (Q95LI8 22-171, chain 2 of 2): as the sequence (P04234 22-171, chain 2 of 2) above, with I5V, N15K, I20V, S32T, D33N, I34N, T64A, S74N, V83L, H141R counted along it
Binder B1 has a Kd of 6.5 ± 0.11 nM.
Work on B2 yielded a Kd of 2.7 ± 0.02 nM.
B3: no binding.
In the case of B4, the Kd is reported as 7.5 ± 0.06 nM.
With B5 the Kd was 5 ± 0.5 nM.
B6 showed a Kd of 3.8 ± 0.61 nM.
